Source: the domain aggregation screens of Martell et al. (2025)

assay: soluble fraction after stress (log2 fold change); higher = more stays soluble; pooled small domains, quantitative proteomics; conditions: stress: 75 degC
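Further: 20 min heating vs room temperature control held 20 min.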

Row | Sequence | soluble fraction (log2)
1 | HMKTGTVQDFIAKYGMSSKSPSSWFNSLTQIQKAEAKALKAQSGLTWNEWYEKNIYNGDGSNL | -0.0584
2 | HMKTKHISIAEGMSLYTRDRSPFYWGYLNIEGVIHKKSLKTDVVDEAIKLLSIWKNELLNSITK | -1.19
3 | HMKTKKYKGVYKDSKGKIYFQIELGVDPITGKRIQKKGRKNQQGLPFNSFKEAYEEILRLKHEFVNSTIN | -3.35
4 | HMKTKTAPPDSIPPAWLKESATLRPDLNQAQIKASAEVFLDHHRAKGTTLADWRPAWRNWIRRERA | 0.0178
5 | HMKTLDAFFDQARDAYKKLKKDGDIDNLKVLRNQLQTVRETQGDAVRKKSKEEYRRLVDIIDDIDGLLAAF | -0.123
6 | HMKTLSKEDIGFLSDEAVGEMRKAVANGEMLELRALIDQVGEKNPIVAEKLLTLVKQYDYENLNRVLE | 0.102
7 | HMKTPAPRETILSLFRQTPDGFVSGERISDELGVSRTAVWKHIRNLRQAGYQIEAIPSRGYQLQQS | -0.556
8 | HMKTQFGTIVKQLRERKGMDQKQLGEIVGVSDKTVSSWEINRTEPKMGIVQQLADYFGVSTDYLIKG | 0.306
9 | HMKTRQVTVRNGRIEIFDKRFSTERLVFTAANLPVLEREGEVFTAGIPDSRDFINLWARDGSFAGSVPRV | -1.96
10 | HMKTTSYAKLLRFLRTERDLSQITVAKQLGLSRASYLALEHGSRELSLSEAVKVTTLYGIRIDDLIVNH | -3.35
11 | HMKTTVEVSPIARPGAVASGSVKFGSGVTAEWMLDQYGRLGLDKPTGKPTEQDIKEFQIELQKAL | 0.0637
12 | HMKVDLSEEEKTILELLKKESPQELETIKAASTLSNKKWDKAIKGLRKHNLAKVNKTDDGLFVELE | 0.234
13 | HMKVDRLISIVLVLLDKNRISAQELADMFEVSLRTIYRDIDAIELAGIPIRSTSGVGGGFEIMPNY | -1.11
14 | HMKVKGVYQLDNGYWGYRFTMLVNGKTVSQRRVKDESGNPFKTEKKAEKARLVAMAEEQTKANK | -2.22
15 | HMKVMTNAELGRIIKEARIARRMTQSEVVGDFITRNMLSQIENGNAAPSMRTLQYLMDVLDIHINIE | -3.02
16 | HMKVNIGDQVYNQMKDQIMSGVWVPGEKIPSENQLMEVFGVSRGTVRQAIQKLSAVGLLETRRGEGSYVGQ | -0.136
17 | HMKVQLGMNTREVRGIMGKPFSEDTFVEGEKRVDVLHYKEAVRVKTQGFILTTSLRFENDSLTAI | -1.62
18 | HMKVRVFIERSNDGYSAYMPDDNNLPFGLTGDGKTAQEAMQDFLLARDEMKEFFIEEGKEFPEVEFDFS | -0.828
19 | HMKVSAEEQNILDALQAAGGYLPFHDKSNPEEIYEAFGISKKTFKMIIGSLYKQQKINLTQTGIQLII | 0.303
20 | HMKVSDPEAIKLIEQAQVKVIPFLDISEAADIQIALEELKNSEGTGQTDSAKVRLRNLLSPFSYL | 0.577
21 | HMKVSFEIEINGVTKSINSINEAKEAISELQDIMDNSTFGSEEFKNAATQIDKLQNKLVEALDK | 0.93
22 | HMKVSVDLSMFEDDQTADRNAAVAWVVDELGAGGVDRTILMQLQSTGWSAEQSRAILDLASAGR | -0.311
23 | HMKVTGSVQKKKGYYYIVVRLPTKNGTQYEQKQKWFNTKLKATPRNKTAAQVILAEKLTEYGGIV | -3.04
24 | HMKVWYAGINAQRVGPMTLGAMEQQIRYGRVLFSTLIWKSPMPQWVPAGDVPELRRLLDEHMLNQMP | -0.841
25 | HMKYFDRDLINYIQKTLAGKKIDFHEKIVPLIIELAGSDIRRVDEIIDMAEYSGKGMHVSEEMIRELAGDV | -0.715
26 | HMKYKTKRDMILALMKKEILSGELKPRTRLLISEVASRYEVSEIPVREAFQVLIQEDLVRSTGAGFEVT | -2.36
27 | HMKYPVYLQLADLIERKINKNEYPLGSKIPSERELIDAFGISRMTVRKAIEVLIEKGLLTRQHGKGTYVSQ | -2.26
28 | HMKYSNDFDKVSYSLGLSIASNLISSGVKTLNAEAFNDGLATVFEGRMPEINPDEANKILQNFFEGLQKE | -0.278
29 | HMKYSQAMIAQIIKHFHLPNNTVVTGEDVDAILLRSVDGGDGIYGGDVVSIWKYYKKQNDIQEIVT | -0.764
30 | HMLAEEDRRRAERPGLDGNAVMVHLGIGPGRHVGEALAFLLEVRRSEGDLAVAELKSRIDAWWADR | -2.17
